How the values were obtained:
JNK1α1(h) = JNK1α1(h) (Homo sapiens, UniProt P45983); assay: Kinase Profiling Assay; assay type: biochemical
[1] = human, HCAVSMCs, 10 μM, intracellular half-life (t1/2), fluorescence 0 and 5 days after treatment removal
Experimental: HCAVSMCs were grown to 80-90% confluence, harvested, and seeded at 20,000 cells/well in a 24 well plate and allowed to adhere overnight in low serum media (DMEM, 1% FBS, and 1% P/S). […] Following treatment, cells were washed with PBS −/−, washed with CellScrub buffer (Genlantis) for 10 minutes at room temperature to remove extracellular polyplexes and/or peptide, washed 2× in PBS −/−, and given fresh complete growth media. Cells were then incubated for an additional 0, 12, 24, 72, or 120 hours. Cells were then washed with PBS −/−, trypsinized, and resuspended in 0.1% Trypan blue in PBS (−/−) for analysis on a FACSCalibur flow cytometer (Becton Dickinson) with BD CellQuest™ Pro software (V 5.2). Data was exported and analyzed with FlowJo software (V 7.6.4). All samples were run in triplicate.

[2] = Cytotoxicity assay (CytoTox-ONE); details: human, HCAVSMCs
Experimental: 200 μL of cell suspension (at 10,000 cells/well) were seeded onto 96-well plates to yield an approximate 70% confluence per well. Cells were allowed to adhere to the plate overnight. […] Treatments were subsequently removed and the cells were cultured in fresh complete growth medium for 24 hours. Cells were then washed 2× with PBS +/+ and cell viability was then determined by a CytoTox-ONE Homogenous Membrane Integrity assay (Promega) according to the manufacturer's protocol. Briefly, 100 μL of Ambion KDalert Lysis Buffer was added to each well, and then 100 μL of freshly prepared CytoTox-ONE reagent was added to each well. After 10 minutes of incubation, 50 μL of stop solution was added, and the fluorescence of each well (kλex=560 nm, λem, =590 nm) was determined with a TECAN Infinite M1000 Pro plate reader.

HCAVSMCs = assay: Flow cytometric uptake and retention of MK2i-NPs and p-HSP20-NPs (30 min treatment); details: 3 days after treatment removal
Experimental: For MK2i-NP and HSP20-NP studies, An amine-reactive Alexa-488 succinimidyl ester (Life Technologies) was dissolved in DMSO and mixed at a 1 to 3 molar ratio with the MK2i or p-HSP20 peptide in 100 mM sodium bicarbonate buffer (pH=8.3) and allowed to react for 3 hours. Unreacted fluorophore and organic solvent were removed using a PD-10 miditrap G-10 desalting column, and the fluorescently labeled MK2i and p-HSP20 peptides were lyophilized. […] Similarly, PPAA was mixed with fluorescently labeled p-HSP20 at a CR of [NH3^+]/[COO^−]=1:3 and syringe filtered through a 0.45 μm PTFE filter to form fluorescent HSP20-NPs. HCAVSMCs were grown to 80-90% confluence, harvested, and seeded at 20,000 cells/well in a 24 well plate and allowed to adhere overnight. […] Following treatment, cells were washed 2× in PBS, and either immediately harvested or incubated in complete growth media for an additional 72 hours. Cells were harvested with 0.05% trypsin-EDTA, centrifuged, and suspended in 0.1% Trypan blue in PBS (−/−) for analysis on a FACSCalibur flow cytometer (Becton Dickinson) with BD CellQuest™ Pro software (V 5.2). Data was exported and analyzed with FlowJo software (V 7.6.4). All samples were run in triplicate.

CDK1/cyclinB(h) = CDK1/cyclinB(h) (Homo sapiens, UniProt P06493); assay: Kinase Profiling Assay; assay type: biochemical; details: 100 μM
Sequence of CDK1/cyclinB(h) (P06493 whole entry): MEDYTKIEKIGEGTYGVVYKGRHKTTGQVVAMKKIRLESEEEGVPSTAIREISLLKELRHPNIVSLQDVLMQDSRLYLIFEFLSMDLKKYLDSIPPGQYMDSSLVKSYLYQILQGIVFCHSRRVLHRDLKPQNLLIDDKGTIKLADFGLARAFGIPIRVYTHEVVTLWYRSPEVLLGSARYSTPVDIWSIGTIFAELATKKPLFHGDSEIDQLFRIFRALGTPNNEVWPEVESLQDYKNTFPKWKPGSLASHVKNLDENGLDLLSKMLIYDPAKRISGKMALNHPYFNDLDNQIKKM
Sequence of CDK1/cyclinB(h) (P14635 whole entry partner): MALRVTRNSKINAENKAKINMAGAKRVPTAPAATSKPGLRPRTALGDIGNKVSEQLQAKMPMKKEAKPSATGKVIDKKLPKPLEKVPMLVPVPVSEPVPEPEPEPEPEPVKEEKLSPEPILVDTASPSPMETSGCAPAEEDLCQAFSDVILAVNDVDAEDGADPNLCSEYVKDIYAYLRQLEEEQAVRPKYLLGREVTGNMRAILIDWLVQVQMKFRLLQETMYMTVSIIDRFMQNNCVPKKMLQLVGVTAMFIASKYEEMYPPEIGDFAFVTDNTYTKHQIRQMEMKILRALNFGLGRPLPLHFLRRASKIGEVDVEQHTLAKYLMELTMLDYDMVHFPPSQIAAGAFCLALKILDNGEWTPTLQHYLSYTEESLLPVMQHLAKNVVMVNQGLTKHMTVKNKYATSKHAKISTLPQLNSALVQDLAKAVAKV

CHK1(h) = target: T1, CHK1(h) (Homo sapiens, UniProt O14757); assay: Kinase Profiling Assay; assay type: biochemical; details: 100 μM
T1 sequence (O14757 1-476): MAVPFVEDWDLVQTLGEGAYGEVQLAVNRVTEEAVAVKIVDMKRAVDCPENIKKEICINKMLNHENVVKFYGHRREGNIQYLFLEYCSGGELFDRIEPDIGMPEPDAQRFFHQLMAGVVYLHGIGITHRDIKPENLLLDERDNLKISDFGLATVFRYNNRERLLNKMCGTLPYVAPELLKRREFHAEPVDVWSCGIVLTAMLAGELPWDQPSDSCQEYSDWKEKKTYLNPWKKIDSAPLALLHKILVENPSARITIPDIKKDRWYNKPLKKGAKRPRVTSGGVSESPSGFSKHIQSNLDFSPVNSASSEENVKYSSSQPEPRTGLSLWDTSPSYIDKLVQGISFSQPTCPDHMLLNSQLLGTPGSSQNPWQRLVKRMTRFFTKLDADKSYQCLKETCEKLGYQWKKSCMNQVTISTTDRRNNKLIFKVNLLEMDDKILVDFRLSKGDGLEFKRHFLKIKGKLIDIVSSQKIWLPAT

c-RAF(h) = c-RAF(h) (Homo sapiens, UniProt P04049); assay: Kinase Profiling Assay; assay type: biochemical; details: 100 μM
EphA3(h) = target: T2, EphA3(h) (Homo sapiens, UniProt P29320); assay: Kinase Profiling Assay; assay type: biochemical; details: 100 μM
T2 sequence (P29320 21-983): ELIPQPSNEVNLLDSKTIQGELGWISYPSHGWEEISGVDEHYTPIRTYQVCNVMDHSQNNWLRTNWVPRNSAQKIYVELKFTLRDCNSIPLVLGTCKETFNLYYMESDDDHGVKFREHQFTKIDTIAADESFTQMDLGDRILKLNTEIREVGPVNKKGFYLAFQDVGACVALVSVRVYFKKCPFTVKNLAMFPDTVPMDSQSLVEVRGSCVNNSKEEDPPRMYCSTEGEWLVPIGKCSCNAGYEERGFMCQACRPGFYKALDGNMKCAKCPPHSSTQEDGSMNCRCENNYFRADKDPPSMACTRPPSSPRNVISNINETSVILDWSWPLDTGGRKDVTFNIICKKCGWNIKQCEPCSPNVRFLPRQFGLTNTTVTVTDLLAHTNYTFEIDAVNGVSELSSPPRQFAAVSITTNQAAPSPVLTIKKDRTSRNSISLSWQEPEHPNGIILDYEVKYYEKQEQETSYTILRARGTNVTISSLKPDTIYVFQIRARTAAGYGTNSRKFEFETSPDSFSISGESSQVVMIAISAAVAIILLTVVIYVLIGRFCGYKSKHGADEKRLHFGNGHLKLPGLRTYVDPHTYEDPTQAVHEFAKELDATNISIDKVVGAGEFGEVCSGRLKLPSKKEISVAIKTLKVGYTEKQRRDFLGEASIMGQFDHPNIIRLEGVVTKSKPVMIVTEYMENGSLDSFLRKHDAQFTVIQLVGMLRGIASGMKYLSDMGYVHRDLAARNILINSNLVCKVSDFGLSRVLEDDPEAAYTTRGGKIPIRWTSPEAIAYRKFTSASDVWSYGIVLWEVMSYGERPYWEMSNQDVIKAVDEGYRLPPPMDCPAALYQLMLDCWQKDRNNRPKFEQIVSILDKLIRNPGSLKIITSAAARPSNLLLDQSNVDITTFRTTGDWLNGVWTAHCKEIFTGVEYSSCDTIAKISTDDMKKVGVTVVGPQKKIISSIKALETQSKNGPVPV

GSK3α(h) = GSK3α(h) (Homo sapiens, UniProt P49840); assay: Kinase Profiling Assay; assay type: biochemical; details: 100 μM
Sequence of GSK3α(h) (P49840 whole entry): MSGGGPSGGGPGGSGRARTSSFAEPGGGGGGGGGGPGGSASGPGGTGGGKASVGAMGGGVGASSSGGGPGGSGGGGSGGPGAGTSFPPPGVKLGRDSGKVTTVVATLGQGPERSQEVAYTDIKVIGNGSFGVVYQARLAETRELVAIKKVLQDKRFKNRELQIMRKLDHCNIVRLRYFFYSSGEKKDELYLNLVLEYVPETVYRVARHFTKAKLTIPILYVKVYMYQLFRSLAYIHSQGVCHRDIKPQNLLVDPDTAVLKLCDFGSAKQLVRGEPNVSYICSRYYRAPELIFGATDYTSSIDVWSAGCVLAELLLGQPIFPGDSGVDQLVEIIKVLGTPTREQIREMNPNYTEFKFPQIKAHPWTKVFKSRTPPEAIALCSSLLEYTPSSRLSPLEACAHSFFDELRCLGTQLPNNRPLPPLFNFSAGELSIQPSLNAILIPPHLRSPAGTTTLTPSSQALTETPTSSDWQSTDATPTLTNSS

Lck(h) = Lck(h) (Homo sapiens, UniProt P06239); assay: Kinase Profiling Assay; assay type: biochemical; details: 100 μM
Sequence of Lck(h) (P06239 whole entry): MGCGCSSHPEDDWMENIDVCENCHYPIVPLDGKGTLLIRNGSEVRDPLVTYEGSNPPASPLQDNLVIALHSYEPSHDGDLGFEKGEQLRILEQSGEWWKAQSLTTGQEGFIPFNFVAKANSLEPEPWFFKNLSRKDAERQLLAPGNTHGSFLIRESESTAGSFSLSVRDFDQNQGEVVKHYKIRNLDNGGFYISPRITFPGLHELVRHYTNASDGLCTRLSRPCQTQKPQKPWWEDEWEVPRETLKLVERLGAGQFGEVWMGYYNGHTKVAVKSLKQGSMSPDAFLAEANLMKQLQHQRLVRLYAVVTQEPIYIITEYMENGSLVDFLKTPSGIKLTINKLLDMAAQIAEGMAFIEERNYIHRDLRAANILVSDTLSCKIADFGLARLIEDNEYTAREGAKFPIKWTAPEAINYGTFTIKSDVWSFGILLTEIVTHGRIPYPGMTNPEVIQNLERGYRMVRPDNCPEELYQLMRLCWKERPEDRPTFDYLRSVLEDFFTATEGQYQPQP

MAPK2(h) = MAPK2(h) (Homo sapiens, UniProt P28482); assay: Kinase Profiling Assay; assay type: biochemical; details: 100 μM
MARK1(h) = MARK1(h) (Homo sapiens, UniProt Q9P0L2); assay: Kinase Profiling Assay; assay type: biochemical; details: 100 μM
Sequence of MARK1(h) (Q9P0L2 whole entry): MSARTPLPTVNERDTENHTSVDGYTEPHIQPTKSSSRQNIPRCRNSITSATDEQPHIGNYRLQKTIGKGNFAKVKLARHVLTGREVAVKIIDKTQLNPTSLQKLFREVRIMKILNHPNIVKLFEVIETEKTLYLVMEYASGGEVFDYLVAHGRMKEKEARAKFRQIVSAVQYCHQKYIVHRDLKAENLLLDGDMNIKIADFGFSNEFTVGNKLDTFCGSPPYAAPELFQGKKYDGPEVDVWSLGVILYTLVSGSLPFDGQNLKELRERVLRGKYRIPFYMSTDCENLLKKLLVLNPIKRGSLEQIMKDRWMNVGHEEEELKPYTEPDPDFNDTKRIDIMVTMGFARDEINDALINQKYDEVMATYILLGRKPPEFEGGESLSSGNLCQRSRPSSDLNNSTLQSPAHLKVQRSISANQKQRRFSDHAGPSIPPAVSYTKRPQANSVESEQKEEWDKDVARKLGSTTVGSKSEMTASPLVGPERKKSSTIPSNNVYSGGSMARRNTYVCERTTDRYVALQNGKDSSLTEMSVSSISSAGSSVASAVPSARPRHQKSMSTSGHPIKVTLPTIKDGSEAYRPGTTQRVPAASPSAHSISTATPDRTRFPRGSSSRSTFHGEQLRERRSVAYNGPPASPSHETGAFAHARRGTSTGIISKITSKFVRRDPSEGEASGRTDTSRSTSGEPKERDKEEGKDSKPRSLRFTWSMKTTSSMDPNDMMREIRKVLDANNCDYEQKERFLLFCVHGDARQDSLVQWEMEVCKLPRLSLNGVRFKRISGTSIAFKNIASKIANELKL

PDGFRα(D842V)(h) = PDGFRα(D842V)(h) (Homo sapiens, UniProt P16234, D842V); assay: Kinase Profiling Assay; assay type: biochemical; details: 100 μM
Sequence of PDGFRα(D842V)(h) (P16234 24-1089 D842V): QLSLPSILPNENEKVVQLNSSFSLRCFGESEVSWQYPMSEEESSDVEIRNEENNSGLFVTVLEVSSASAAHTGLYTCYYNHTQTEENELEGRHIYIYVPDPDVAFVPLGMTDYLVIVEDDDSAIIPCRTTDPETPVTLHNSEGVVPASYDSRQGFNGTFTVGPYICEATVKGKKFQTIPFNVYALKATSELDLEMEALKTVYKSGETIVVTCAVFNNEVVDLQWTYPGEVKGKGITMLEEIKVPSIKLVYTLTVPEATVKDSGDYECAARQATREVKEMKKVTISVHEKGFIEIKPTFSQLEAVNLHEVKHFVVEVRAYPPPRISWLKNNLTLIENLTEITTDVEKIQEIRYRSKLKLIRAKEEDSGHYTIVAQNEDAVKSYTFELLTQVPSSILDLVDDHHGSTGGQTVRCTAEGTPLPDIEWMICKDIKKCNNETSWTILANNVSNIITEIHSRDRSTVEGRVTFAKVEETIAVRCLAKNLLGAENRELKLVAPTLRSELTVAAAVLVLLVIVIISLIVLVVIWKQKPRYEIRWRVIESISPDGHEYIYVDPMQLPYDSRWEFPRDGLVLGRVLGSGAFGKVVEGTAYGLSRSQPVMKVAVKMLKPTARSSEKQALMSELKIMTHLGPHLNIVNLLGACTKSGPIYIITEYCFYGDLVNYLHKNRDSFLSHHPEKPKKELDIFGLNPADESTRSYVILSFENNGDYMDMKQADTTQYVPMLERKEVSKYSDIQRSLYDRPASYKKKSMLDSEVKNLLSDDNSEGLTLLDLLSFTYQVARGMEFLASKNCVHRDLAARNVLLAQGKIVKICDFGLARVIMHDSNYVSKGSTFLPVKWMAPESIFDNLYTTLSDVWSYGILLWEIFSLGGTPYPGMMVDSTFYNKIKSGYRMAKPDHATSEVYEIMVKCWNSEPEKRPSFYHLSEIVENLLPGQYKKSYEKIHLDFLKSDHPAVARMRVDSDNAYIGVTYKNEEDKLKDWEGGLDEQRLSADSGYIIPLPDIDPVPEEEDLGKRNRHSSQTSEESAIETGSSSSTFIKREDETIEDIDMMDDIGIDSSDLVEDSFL

Plk3(h) = Plk3(h) (Homo sapiens, UniProt Q9H4B4); assay: Kinase Profiling Assay; assay type: biochemical; details: 100 μM
VRK2(h) = VRK2(h) (Homo sapiens, UniProt Q86Y07); assay: Kinase Profiling Assay; assay type: biochemical; details: 100 μM
Sequence of VRK2(h) (Q86Y07 whole entry): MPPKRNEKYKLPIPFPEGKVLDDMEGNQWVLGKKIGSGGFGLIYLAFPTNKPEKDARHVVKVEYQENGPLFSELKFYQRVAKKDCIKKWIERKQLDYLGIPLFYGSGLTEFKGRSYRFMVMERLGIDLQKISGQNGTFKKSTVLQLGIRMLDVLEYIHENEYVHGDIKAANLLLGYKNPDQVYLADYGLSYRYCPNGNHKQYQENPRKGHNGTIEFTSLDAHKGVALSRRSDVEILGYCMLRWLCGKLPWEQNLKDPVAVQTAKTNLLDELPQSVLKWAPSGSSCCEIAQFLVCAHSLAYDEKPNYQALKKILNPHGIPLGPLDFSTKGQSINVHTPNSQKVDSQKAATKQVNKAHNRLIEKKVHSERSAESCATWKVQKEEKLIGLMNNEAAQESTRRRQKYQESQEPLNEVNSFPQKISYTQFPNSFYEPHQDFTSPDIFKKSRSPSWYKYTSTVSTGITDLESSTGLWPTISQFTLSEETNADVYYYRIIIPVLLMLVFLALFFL

CK1γ3(h) = CK1γ3(h) (Homo sapiens, UniProt Q9Y6M4); assay: Kinase Profiling Assay; assay type: biochemical; details: 100 μM
Tie2(R849W)(h) = Tie2(R849W)(h) (Homo sapiens, UniProt Q02763, R849W); assay: Kinase Profiling Assay; assay type: biochemical; details: 100 μM
Yes(h) = Yes(h) (Homo sapiens, UniProt P07947); assay: Kinase Profiling Assay; assay type: biochemical; details: 100 μM
Sequence of Yes(h) (P07947 whole entry): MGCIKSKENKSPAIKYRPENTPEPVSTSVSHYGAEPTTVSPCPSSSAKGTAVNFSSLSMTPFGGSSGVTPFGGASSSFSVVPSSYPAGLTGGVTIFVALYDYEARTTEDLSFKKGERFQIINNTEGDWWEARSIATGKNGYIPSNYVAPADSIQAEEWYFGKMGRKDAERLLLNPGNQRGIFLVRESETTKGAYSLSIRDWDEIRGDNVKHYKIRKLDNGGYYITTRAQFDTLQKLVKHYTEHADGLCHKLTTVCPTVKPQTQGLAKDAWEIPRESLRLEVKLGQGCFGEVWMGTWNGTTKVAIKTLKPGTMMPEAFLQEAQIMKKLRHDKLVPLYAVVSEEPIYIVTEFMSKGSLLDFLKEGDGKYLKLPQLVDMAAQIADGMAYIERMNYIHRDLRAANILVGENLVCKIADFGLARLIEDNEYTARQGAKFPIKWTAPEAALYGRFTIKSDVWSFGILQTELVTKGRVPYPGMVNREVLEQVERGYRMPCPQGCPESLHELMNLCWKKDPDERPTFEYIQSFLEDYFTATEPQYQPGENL

Sequence of JNK1α1(h) (P45983 1-384 isoform P45983-2): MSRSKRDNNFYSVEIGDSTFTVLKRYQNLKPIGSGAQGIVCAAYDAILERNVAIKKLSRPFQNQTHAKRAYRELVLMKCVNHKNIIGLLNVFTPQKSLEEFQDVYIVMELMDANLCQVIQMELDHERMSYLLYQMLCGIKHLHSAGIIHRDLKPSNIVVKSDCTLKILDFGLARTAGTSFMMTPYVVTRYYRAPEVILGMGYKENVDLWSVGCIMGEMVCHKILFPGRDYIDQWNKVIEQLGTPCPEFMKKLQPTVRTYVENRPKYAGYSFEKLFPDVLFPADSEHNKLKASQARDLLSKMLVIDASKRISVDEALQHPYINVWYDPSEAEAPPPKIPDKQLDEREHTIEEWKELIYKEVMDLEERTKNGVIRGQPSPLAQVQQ

Substance H-YARAAARQARAKALARQLGVAA-OH [MMI-0100] has an activity at 100 µM (JNK1α1(h)) of 91%, a half-life [1] of 96 h and a viability at 2 h, 500 µM [2] of 76%. For the same substance, the “intracellular peptide retention (% of initial uptake remaining)” value (HCAVSMCs) was 54%.

For “HRRIKAWLKKIKALARQLGVAA (Mammalian) [MMI-0500]”, the “% activity” value (CDK1/cyclinB(h)) was 57%, the “% activity” value (CHK1(h)) was 65% and the “% activity” value (c-RAF(h)) was 19%. The “% activity” value (EphA3(h)) was 33%, the “% activity” value (GSK3α(h)) was 175% and the “% activity” value (Lck(h)) was 359%. The “% activity” value (MAPK2(h)) was 60%, the “% activity” value (MARK1(h)) was 110% and the “% activity” value (PDGFRα(D842V)(h)) was 170%. The “% activity” value (Plk3(h)) was 122% and the “% activity” value (VRK2(h)) was 169%.

In the case of “YARAAARQARAKALNRQLGVA (Mammalian) [MMI-0200]”, the “% activity” value (CK1γ3(h)) is reported as 96%, the “% activity” value (Tie2(R849W)(h)) is reported as 89% and the “% activity” value (Yes(h)) is reported as 93%.

Source: patent US10087225B2, “Formulation of MK2 inhibitor peptides” (MOERAE MATRIX, INC., priority 2015, dated 2018)
